Assay results from the supplement of paper PMC7125110.
± gives the standard error. For some assays here: This sample holds only a part of the variants without activity.

B1: glmS ribozyme (parent)
chain: AUAAAAGCGCCAGAACUACAGAAAUGUAGUUGACGAGGAGGAGGUUUAUCGAAUUUUCGGCGGAUGCCUCCAAA

What was measured:
Conditions in all cases: with glucosamine-6-phosphate
glucosamine-6-phosphate [1] = variants of: B1; assay: kcat; higher = faster cleavage; RNA array
Outline: (§1)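 Tracking of barcoded ribozyme variants used a hybridised Cy3 probe at 37 °C, after in situ transcription by E. coli RNA polymerase on sequenced MiSeq chips. The flowed solution held 40 μM to 10 mM glucosamine-6-phosphate in HEPES/KCl/Mg(OAc)2 buffer, and imaging ran over ~14 h. kobs was taken from exponential decay fits of normalised per-tile medians, and kcat and KM from weighted Michaelis–Menten fits.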

glucosamine-6-phosphate [2] = variants of: B1; assay: self-cleavage kobs at 40 uM GlcN6P; higher = faster cleavage; RNA array
Outline: as §1

glucosamine-6-phosphate [3] = variants of: B1; assay: self-cleavage kobs at 160 uM GlcN6P; higher = faster cleavage; RNA array
Outline: as §1

glucosamine-6-phosphate [4] = variants of: B1; assay: self-cleavage kobs at 640 uM GlcN6P; higher = faster cleavage; RNA array
Outline: as §1

glucosamine-6-phosphate [5] = variants of: B1; assay: self-cleavage kobs at 2500 uM GlcN6P; higher = faster cleavage; RNA array
Outline: as §1

glucosamine-6-phosphate [6] = variants of: B1; assay: self-cleavage kobs at 10000 uM GlcN6P; higher = faster cleavage; RNA array
Outline: as §1

glucosamine-6-phosphate [7] = variants of: B1; assay: KM; higher = weaker cofactor use; RNA array
Outline: as §1

| Variant | kcat (glucosamine-6-phosphate [1]) [s⁻¹] | self-cleavage kobs at 40 uM GlcN6P (glucosamine-6-phosphate [2]) [s⁻¹] | self-cleavage kobs at 160 uM GlcN6P (glucosamine-6-phosphate [3]) [s⁻¹] | self-cleavage kobs at 640 uM GlcN6P (glucosamine-6-phosphate [4]) [s⁻¹] | self-cleavage kobs at 2500 uM GlcN6P (glucosamine-6-phosphate [5]) [s⁻¹] | self-cleavage kobs at 10000 uM GlcN6P (glucosamine-6-phosphate [6]) [s⁻¹] | KM (glucosamine-6-phosphate [7]) [µM] |
| --- | --- | --- | --- | --- | --- | --- | --- |
| A15G U69A | 0.000201 ± 4.3e-05 | 6.42e-05 ± 9.6e-06 | 0.000145 ± 1.7e-05 | 0.000137 ± 1.8e-05 | 0.000264 ± 5.2e-05 | 0.000312 ± 4.6e-05 |  |
| A15U G29U | 0.00358 ± 0.0016 | 0.000116 ± 1.1e-05 | 0.000217 ± 7.1e-05 |  | 0.0014 ± 0.00028 | 0.00431 ± 0.00044 |  |
| A15G A39U | 0.0505 ± 0.019 | 0.0006 ± 7.9e-05 | 0.00146 ± 0.00026 | 0.00551 ± 0.001 | 0.0136 ± 0.0025 | 0.0387 ± 0.0051 | 4740 ± 2300 |
| A15G A39C | 0.0119 ± 0.0054 | 0.000149 ± 1.5e-05 | 0.000242 ± 6.6e-05 | 0.0011 ± 0.00014 | 0.00446 ± 0.00072 | 0.00811 ± 0.00088 |  |
| A15G G60U | < 1e-05 | < 1e-05 | < 1e-05 | < 1e-05 |  |  |  |
| A15C G41U | 0.000171 ± 7.6e-06 |  |  | 7.33e-05 ± 2.3e-05 | 0.000137 ± 3.4e-05 | 0.000154 ± 2.6e-05 | 879 ± 120 |
| A15C G41A | 0.000104 ± 4.7e-06 |  |  | 4.65e-05 ± 1.2e-05 | 8.56e-05 ± 1.8e-05 | 9.45e-05 ± 1.5e-05 | 744 ± 120 |
| A15G U49A | 1.35e-05 ± 1.2e-06 |  | < 1e-05 |  |  |  | 1230 ± 550 |
| A15G G51A | < 1e-05 |  | < 1e-05 | < 1e-05 |  |  |  |
| A15G C68G | 0.000113 ± 3e-06 |  | 3.48e-05 ± 1.2e-05 | 7.26e-05 ± 1.2e-05 | 9.45e-05 ± 1.6e-05 | 0.000113 ± 1.7e-05 | 367 ± 35 |
| A15G A42G | 0.132 ± 0.031 | 0.00132 ± 0.00047 | 0.00525 ± 0.0011 | 0.024 ± 0.0099 |  |  | 3780 ± 970 |
| A15G C67A | 0.00627 ± 0.0024 | 0.000534 ± 0.00011 | 0.000961 ± 0.00011 | 0.00406 ± 0.0007 | 0.00376 ± 0.00071 | 0.00896 ± 0.0018 |  |
| A15G U31A | 0.0107 ± 0.0009 | 0.000199 ± 4.4e-05 | 0.000722 ± 0.00015 | 0.00236 ± 0.00063 | 0.00493 ± 0.0014 | 0.00926 ± 0.0017 | 2220 ± 260 |
| A15G U31G | 0.00736 ± 0.0015 | 7.87e-05 ± 9.4e-06 | 0.000202 ± 3.2e-05 | 0.0011 ± 0.00015 | 0.00262 ± 0.00033 | 0.00513 ± 0.00051 | 4370 ± 1200 |
| A15U C16A | 0.00121 ± 9.4e-05 |  | 6.19e-05 ± 8.7e-06 | 0.000244 ± 2.2e-05 | 0.000544 ± 7e-05 | 0.000959 ± 9.8e-05 | 2740 ± 310 |
| A15G G37A | 0.00317 ± 0.0014 | 8.19e-05 ± 9.7e-06 | 0.000154 ± 2.7e-05 | 0.000515 ± 7.3e-05 | 0.00123 ± 0.00023 | 0.00292 ± 0.00037 |  |
| A15G U30C | 0.0225 ± 0.0031 | 0.00107 ± 0.00018 | 0.00315 ± 0.00047 | 0.0102 ± 0.0015 | 0.0197 ± 0.005 | 0.0186 ± 0.0045 | 871 ± 170 |
| A15G U30A | 0.018 ± 0.005 | 0.000649 ± 0.00011 | 0.00255 ± 0.00036 | 0.00983 ± 0.0012 | 0.0165 ± 0.0028 | 0.0115 ± 0.003 | 923 ± 360 |
| A15G U54G | 0.0486 ± 0.02 | 0.000945 ± 8.8e-05 | 0.00385 ± 0.00091 | 0.00802 ± 0.0015 | 0.0243 ± 0.0097 | 0.0509 ± 0.011 | 2200 ± 1000 |
| A15G G40A | 0.0072 ± 0.0015 | 0.000316 ± 8.2e-05 | 0.000754 ± 0.00016 | 0.00207 ± 0.00049 | 0.00475 ± 0.00096 | 0.00713 ± 0.002 | 1290 ± 400 |
| A15G G40U | 0.00552 ± 0.00099 | 0.000202 ± 2.1e-05 | 0.000466 ± 6.2e-05 | 0.00181 ± 0.0002 | 0.00448 ± 0.00068 | 0.00473 ± 0.00045 | 1330 ± 360 |
| A15C G40U | 0.000399 ± 4.3e-05 |  | 5.39e-05 ± 1e-05 | 0.000135 ± 1.4e-05 | 0.000333 ± 5.3e-05 | 0.000348 ± 4.2e-05 | 1140 ± 230 |
| A15C G66U | 0.000265 ± 3.3e-05 |  |  | 4.02e-05 ± 7.2e-06 | 0.000134 ± 1.5e-05 | 0.000194 ± 2.2e-05 | 3080 ± 740 |
| A15C U47C C71U | 0.000301 ± 5.9e-06 |  |  | 0.000129 ± 2.7e-05 | 0.000228 ± 4.9e-05 | 0.000275 ± 4.5e-05 | 867 ± 47 |
| A15G U57C C58A | 3.45e-05 ± 4.1e-06 |  |  |  |  | 3.05e-05 ± 1.1e-05 |  |
| A15U C58A | 0.000154 ± 5.6e-06 |  |  |  | 6.38e-05 ± 1.2e-05 | 0.000113 ± 1e-05 | 3640 ± 360 |
| A15U C58U | 8.55e-05 ± 9.3e-06 |  |  |  | 3.46e-05 ± 8.3e-06 | 6.48e-05 ± 8.4e-06 | 3320 ± 980 |
| A15G U45C | 0.00752 ± 0.0016 | 7.04e-05 ± 1.4e-05 | 0.000179 ± 3.2e-05 | 0.000853 ± 0.00012 | 0.00219 ± 0.00027 | 0.00497 ± 0.00061 | 5570 ± 1600 |
